Columns and labels:
[1] = target: Schizosaccharomyces pombe Ccr4–Not complex with an FITC label on the Not9 subunit (S. pombe) (UniProt P87112); experiment: fluorescence polarisation; fluorescence anisotropy; Puf3 constructs titrated into 25 nM Ccr4–Not with FITC on Not9; 20 mM HEPES pH 8, 100 mM NaCl, 0.5 mM TCEP; quadratic fit; apparent KD
[2] = target: recombinant full-length H. sapiens CCR4–NOT deadenylase complex (human)
[3] = target: recombinant full-length H. sapiens CCR4–NOT deadenylase complex (human); remark: listed apart in the source
[4] = target: Schizosaccharomyces pombe Ccr4–Not complex with an FITC label on the Not9 subunit (S. pombe, UniProt P87112 1-2100; P87240 1-306; O13870 1-640; Q92368 1-283; O74874 1-690; O74856 …, fluorescein (FITC label) from a CoA–fluorescein conjugate on the YbbR tag at the N terminus); experiment: FP; apparent
[5] = target: Schizosaccharomyces pombe Ccr4–Not complex, full-length, unlabeled (Not1, Not2, Not3, Not4, Not9, Ccr4, Caf1) (S. pombe) (UniProt P87112)

PUM1^Δ587, sequence (Q14671 588-1186, stated change not applied): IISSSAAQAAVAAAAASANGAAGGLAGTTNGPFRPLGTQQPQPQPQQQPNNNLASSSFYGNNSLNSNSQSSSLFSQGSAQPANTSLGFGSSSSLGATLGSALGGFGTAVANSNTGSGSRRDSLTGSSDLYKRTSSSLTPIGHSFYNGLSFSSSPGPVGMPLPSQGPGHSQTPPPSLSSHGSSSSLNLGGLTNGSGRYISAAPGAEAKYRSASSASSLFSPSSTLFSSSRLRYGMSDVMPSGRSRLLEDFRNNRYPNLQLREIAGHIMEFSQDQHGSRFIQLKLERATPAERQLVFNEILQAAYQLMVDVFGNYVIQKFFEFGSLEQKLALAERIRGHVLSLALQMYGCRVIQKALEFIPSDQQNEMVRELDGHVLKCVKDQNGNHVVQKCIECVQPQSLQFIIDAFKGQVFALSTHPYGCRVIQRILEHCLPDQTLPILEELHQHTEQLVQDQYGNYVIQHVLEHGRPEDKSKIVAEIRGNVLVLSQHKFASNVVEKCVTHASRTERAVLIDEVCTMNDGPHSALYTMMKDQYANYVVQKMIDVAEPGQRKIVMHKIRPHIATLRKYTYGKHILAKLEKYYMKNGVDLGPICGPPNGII

Row | Molecule | Kd [1] | Kd [4] | further results
1 | Puf3 variant with residues 53–68 and 217–232 both replaced with a GSN linker (from UniProt O94462 1-52; O94462 69-216; O94462 233-732) (natural protein) | 10000 nM | – | –
2 | PUM1^Δ587 (from UniProt Q14671 588-1186) (domain or fragment) | – | – | stimulation of removal of the poly(A) tail by human CCR4–NOT [2]: 10 fold; fold decrease in stimulation of deadenylation by human CCR4–NOT (in vitro targeted deadenylation assay) [3]: 4 fold
3 | Puf3 construct spanning residues 109–208 (anisotropy) (domain or fragment) SANHHGNPFPNGKQSIKAMPSLVNLQEDSVISKFPNSLEVPFRKRSESTSSSLSGLHSDLRPLKTELYGQLNSECGARFPQTLKSPLTPIGGDSARTVSA | > 50000 nM | > 40000 nM | –
4 | 1-158 (protein) MFTAVNSNPNASESISGNSAFNFPSAPVSSLDTNNYGQRRPSLLSGTSPTSSFFNSSMISSNYTFPHGSNKQASLESPVSYSNPIPSLTWLSLDGDSPDSLVSTPTAPSANHHGNPFPNGKQSIKAMPSLVNLQEDSVISKFPNSLEVPFRKRSESTSQSRVLYLFHANKQRHFELSDILGNVVLFSTDQHGSRFIQQKLATATEEEREAVFQEIASTSCLQLMMDIFGNYVVQKYFEFGNEKQKQILLSQIKGHVFSLSLQMYGCRVVQKAIEYISPEHQVQLIQELDGHVLDCVCDQNGNHVIQKAIECIDTGHLQFILRALRPQIHVLSAHPYGCRVIQRAIEHCHSERKLIIEELLPHILKLTQDQYGNYVVQHILRTGSESDKKYIFDLMIDHLLFLSCHKFASNVVERCISYISDVDRRRILNKIISEKAENCSILMLMMKDKYANYVIQKLLDASPEEERDLLISYIYPHISVLKKFTYGKHLIMSVERFRQKSISAVPKLASKECK | – | ~10000 nM | –
5 | Puf3 variant with residues 217–232 replaced with a GSN linker (natural protein) MFTAVNSNPNASESISGNSAFNFPSAPVSSLDTNNYGQRRPSLLSGTSPTSSFFNSSMISSNYTFPHGSNKQASLESPVSYSNPIPSLTWLSLDGDSPDSLVSTPTAPSANHHGNPFPNGKQSIKAMPSLVNLQEDSVISKFPNSLEVPFRKRSESTSSSLSGLHSDLRPLKTELYGQLNSECGARFPQTLKSPLTPIGGDSARTVSASTARTSDKTSKPSRHASHSSIGDLTTITQSSISSGSGSFKPSWDGSFDSSLMAHQSYGTSPAFANGNSPTLKNDSSFFGSASVRPTVSPIGTSFRQSLPDISAFGIPKTETNPSEVVAPGTIPISVLPTSNFSAATPANPSLINQNGQEFLQQSRVLYLFHANKQRHFELSDILGNVVLFSTDQHGSRFIQQKLATATEEEREAVFQEIASTSCLQLMMDIFGNYVVQKYFEFGNEKQKQILLSQIKGHVFSLSLQMYGCRVVQKAIEYISPEHQVQLIQELDGHVLDCVCDQNGNHVIQKAIECIDTGHLQFILRALRPQIHVLSAHPYGCRVIQRAIEHCHSERKLIIEELLPHILKLTQDQYGNYVVQHILRTGSESDKKYIFDLMIDHLLFLSCHKFASNVVERCISYISDVDRRRILNKIISEKAENCSILMLMMKDKYANYVIQKLLDASPEEERDLLISYIYPHISVLKKFTYGKHLIMSVERFRQKSISAVPKLASKECK | – | 420 nM | stimulation of Ccr4–Not-mediated deadenylation (in vitro targeted deadenylation assay, t1/2) [5]: 2 fold
6 | Puf3 variant with residues 53–68 replaced with a GSN linker (natural protein) MFTAVNSNPNASESISGNSAFNFPSAPVSSLDTNNYGQRRPSLLSGTSPTSSSNKQASLESPVSYSNPIPSLTWLSLDGDSPDSLVSTPTAPSANHHGNPFPNGKQSIKAMPSLVNLQEDSVISKFPNSLEVPFRKRSESTSSSLSGLHSDLRPLKTELYGQLNSECGARFPQTLKSPLTPIGGDSARTVSASTARTSDKFFPRHTRAHSDFWIPATSKPSRHASHSSIGDLTTITQSSISSGSGSFKPSWDGSFDSSLMAHQSYGTSPAFANGNSPTLKNDSSFFGSASVRPTVSPIGTSFRQSLPDISAFGIPKTETNPSEVVAPGTIPISVLPTSNFSAATPANPSLINQNGQEFLQQSRVLYLFHANKQRHFELSDILGNVVLFSTDQHGSRFIQQKLATATEEEREAVFQEIASTSCLQLMMDIFGNYVVQKYFEFGNEKQKQILLSQIKGHVFSLSLQMYGCRVVQKAIEYISPEHQVQLIQELDGHVLDCVCDQNGNHVIQKAIECIDTGHLQFILRALRPQIHVLSAHPYGCRVIQRAIEHCHSERKLIIEELLPHILKLTQDQYGNYVVQHILRTGSESDKKYIFDLMIDHLLFLSCHKFASNVVERCISYISDVDRRRILNKIISEKAENCSILMLMMKDKYANYVIQKLLDASPEEERDLLISYIYPHISVLKKFTYGKHLIMSVERFRQKSISAVPKLASKECK | – | 290 nM | fold decrease in stimulation of Ccr4–Not-mediated deadenylation (in vitro targeted deadenylation assay, t1/2) [5]: 2 fold
7 | Puf3 residues 158–258, GST–lipoyl tag fusion with no PUM domain (domain or fragment) SSSLSGLHSDLRPLKTELYGQLNSECGARFPQTLKSPLTPIGGDSARTVSASTARTSDKFFPRHTRAHSDFWIPATSKPSRHASHSSIGDLTTITQSSISS | 7000 nM | – | –
8 | Puf3 residues 109–258, GST–lipoyl tag fusion with no PUM domain (domain or fragment) SANHHGNPFPNGKQSIKAMPSLVNLQEDSVISKFPNSLEVPFRKRSESTSSSLSGLHSDLRPLKTELYGQLNSECGARFPQTLKSPLTPIGGDSARTVSASTARTSDKFFPRHTRAHSDFWIPATSKPSRHASHSSIGDLTTITQSSISS | 800 nM | – | –
9 | MBP-tagged full-length S. pombe Puf3 (natural protein) MFTAVNSNPNASESISGNSAFNFPSAPVSSLDTNNYGQRRPSLLSGTSPTSSFFNSSMISSNYTFPHGSNKQASLESPVSYSNPIPSLTWLSLDGDSPDSLVSTPTAPSANHHGNPFPNGKQSIKAMPSLVNLQEDSVISKFPNSLEVPFRKRSESTSSSLSGLHSDLRPLKTELYGQLNSECGARFPQTLKSPLTPIGGDSARTVSASTARTSDKFFPRHTRAHSDFWIPATSKPSRHASHSSIGDLTTITQSSISSGSGSFKPSWDGSFDSSLMAHQSYGTSPAFANGNSPTLKNDSSFFGSASVRPTVSPIGTSFRQSLPDISAFGIPKTETNPSEVVAPGTIPISVLPTSNFSAATPANPSLINQNGQEFLQQSRVLYLFHANKQRHFELSDILGNVVLFSTDQHGSRFIQQKLATATEEEREAVFQEIASTSCLQLMMDIFGNYVVQKYFEFGNEKQKQILLSQIKGHVFSLSLQMYGCRVVQKAIEYISPEHQVQLIQELDGHVLDCVCDQNGNHVIQKAIECIDTGHLQFILRALRPQIHVLSAHPYGCRVIQRAIEHCHSERKLIIEELLPHILKLTQDQYGNYVVQHILRTGSESDKKYIFDLMIDHLLFLSCHKFASNVVERCISYISDVDRRRILNKIISEKAENCSILMLMMKDKYANYVIQKLLDASPEEERDLLISYIYPHISVLKKFTYGKHLIMSVERFRQKSISAVPKLASKECK | 100 nM | 160 nM | –

From PMC12819147 (2025)
